Results as given in patent publication US20220411840A1, “High Efficiency Template-Free Enzymatic Synthesis of Polynucleotides” (DNA Script, priority 2019, published 2022).

What was measured:
[1] = tested on: synGG primer (5′-TGTGAGAGTGAAATGAGG, SEQ ID NO: 7); assay: Incorporation of 3′-O-azidomethyl nucleoside triphosphates (AM-dNTPs) by TdT variants on primer synGG in solution; format: biochemical; settings: 1 uM primer, 2 uM TdT variant, 80 uM AM-dNTP, 10% DMSO, 5 min at 37° C.
[2] = tested on: polyT primer (5′-TTTTTTTTTTTTTTTTTTTT (20T), SEQ ID NO: 8); assay: Incorporation of 3′-O-azidomethyl nucleoside triphosphates (AM-dNTPs) by TdT variants on primer polyT in solution; format: biochemical; settings: 1 uM primer, 2 uM TdT variant, 80 uM AM-dNTP, 10% DMSO, 5 min at 37° C.

Molecule	Percentage of AM-dNTP Incorporation (percentage of extended primers) ([1]; AM-dNTP: A)	Percentage of AM-dNTP Incorporation (percentage of extended primers) ([1]; AM-dNTP: C)	Percentage of AM-dNTP Incorporation (percentage of extended primers) ([1]; AM-dNTP: G)	Percentage of AM-dNTP Incorporation (percentage of extended primers) ([1]; AM-dNTP: T)	Percentage of AM-dNTP Incorporation (percentage of extended primers) ([2]; AM-dNTP: A)	Percentage of AM-dNTP Incorporation (percentage of extended primers) ([2]; AM-dNTP: C)	Percentage of AM-dNTP Incorporation (percentage of extended primers) ([2]; AM-dNTP: G)	Percentage of AM-dNTP Incorporation (percentage of extended primers) ([2]; AM-dNTP: T)
M55: ACT-TdT variant: SEQ ID NO: 1 with substitutions A17V+Q37E+D41R+L52F+G57E+M63R+S94R+G98E+A108V+S146E+K147R+Q149R+C173G+M184T+R207L+K209H+M210Q+G284L+E289A+R325V+E328K+N345E+R351K (protein, truncated mouse TdT) NSSPSPVPGSQNVPAPVVKKISQYACQRRTTLNNYNELFTRALDILAENDEFRENEESCLAFRRASSVLKSLPFPITSMKDTEGIPCLGDKVKRIIEEIIEDGESSEVKAVLNDERYKSFKLFTSVFGVGLKTAEKWFRMGFRTLERIRSDKSLRFTQMQKAGFLYYEDLVSGVNRPEAEAVSTLVKEAVVTFLPDALVTMTGGFRLGHQTGHDVDFLITSPEATEDEEQQLLHKVTDFWKQQGLLLYCDILESTFEKFKQPSRKVDALDHFQKCFLILKLDHLRVHSAKSGQQEGKGWKAIRVDLVMCPYDRRAFALLGWTGSVQFKRDLRRYATHERKMMLDEHALYDKTKRVFLEAESEEEIFAHLGLDYIEPWERNA	74%	86%	30%	76%	15%	69%	12%	61%
M56: G-TdT variant: SEQ ID NO: 1 with substitutions A17V+Q37E+D41R+L52F+G57E+M63R+I76V+S94R+G98E+A108V+S146E+Q149R+C173G+M184T+R207L+K209H+F259E+Q261R+K265G+G284L+E289A+R325V+E328N+R351K (protein, truncated mouse TdT) NSSPSPVPGSQNVPAPVVKKISQYACQRRTTLNNYNELFTRALDILAENDEFRENEESCLAFRRASSVLKSLPFPVTSMKDTEGIPCLGDKVKRIIEEIIEDGESSEVKAVLNDERYKSFKLFTSVFGVGLKTAEKWFRMGFRTLEKIRSDKSLRFTQMQKAGFLYYEDLVSGVNRPEAEAVSTLVKEAVVTFLPDALVTMTGGFRLGHMTGHDVDFLITSPEATEDEEQQLLHKVTDFWKQQGLLLYCDILESTFEKEKRPSRGVDALDHFQKCFLILKLDHLRVHSAKSGQQEGKGWKAIRVDLVMCPYDRRAFALLGWTGSVQFNRDLRRYATHERKMMLDNHALYDKTKRVFLEAESEEEIFAHLGLDYIEPWERNA	4%	68%	65%	71%	0%	27%	15%	52%
